# Source: patent publication US20100086958A1, “NOVEL ENZYME” (priority 2008, published 2010)
# B1: Bsp383FDH: wild type FDH from Burkholderia sp 383, Seq ID No: 1, C-terminal His-tagged (protein, listed as Burkholderia sp.)
# chain: MATVLCVLYPDPVDGYPPRYVRDAIPVITHYADGQTAPTPAGPPGFQPGELVGCVSGALGLRGYMEAHGHTLIVTSDKDSPDSEFERRLPEADVVISQPFWPAYLTAERIARAPKLKLALTAGIGSDHVDLDAAARARITVAEVTGSNSISVAEHVVMTTLALVRNYLPSHAIAQQGGWNIADCVSRSYDVEGMHFGTVGAGRIGLAVLRRLKPFGLQLHYTQRHRLDASIEQELGLTYHADAASLASAVDIVNLQIPLYPSTEHLFDAAMIARMKRGAYLINTARAKLVDRDAVVNALTSGHLAGYGGDVWFPQPAPADHPWRTMPFNGMTPHISGTSLSAQARYAAGTLEILQCWFDGKPIRNEYLIVDGGTLAGTGAQSYRLT
# modifications: C-terminal His tag
# Key:
# [1] = Steady state kinetics for NAD^+ (FDH-catalysed formate oxidation); assay type: biochemical; conditions: cofactor NAD^+, 0.18M formate
# Procedure: (§1) BcenFDH1 (Bsp184FDH) and BspFDH2 (Bsp383FDH) catalyzed oxidation of formate to CO2 was monitored by UV/Vis spectrophotometry in a 96-well plate format. A series of eight solutions of formate (0-200 mM) were prepared by successive dilutions of a stock solution of 0.5 M sodium formate in 0.1 M sodium phosphate buffer, pH 7.0. From this series, 170 μL was transferred into wells of the 96-well plate. 10 μL of the FDHs from a stock solution (64.1 μM for BcenFDH1 (Bsp184FDH) and 78.0 μM for BspFDH2 (Bsp383FDH)) were added into each well and equilibrated for 3 min at 30° C. The reaction was initiated by addition of 20 μL of NAD^+ or NADP^+ solution from a freshly prepared stock (10 mM) using an 8-channel pipette. The plate was then immediately placed into the plate reader. The plate was shaken for 5 s to ensure thorough mixing, and then time-based measurements were recorded every 15 s for 10 min. The rate of formate oxidation was calculated using an extinction coefficient of 3.38 mM^−1 (for 200 μL), which was determined using NADH standards. Km and Vmax values were obtained by non-linear regression to the Michaelis-Menten equation (Eq.1 below) using Origin v7 (Microcal Software Inc.).
# (§2) Similar procedure were used for determination of Michaelis-Menten parameters for NAD^+ and NADP^+. A series of eight solutions of cofactor (0-75 mM) were prepared by successive dilutions of stock solutions. […] of sodium formate solutions (180 mM in well) were transferred into wells of the 96-well plate. 10 μL of the FDHs from a stock solution (64.1 μM for BcenFDH1 (Bsp184FDH) and 78.0 μM for BspFDH2 (Bsp383FDH)) were added into each well and equilibrated for 3 min at 30° C. The reaction was initiated by addition of 20 μL of NAD^+ or NADP^+ solutions using an 8-channel pipette. The plate was then immediately placed into the plate reader. The plate was shaken for 5 s to ensure thorough mixing, and then time-based measurements were recorded every 15 s for 10 min. The rate of formate oxidation was calculated using an extinction coefficient of 3.38 mM^−1 (for 200 μL), which was determined using NADH standards. Km and Vmax values were obtained by non-linear regression to the Michaelis-Menten equation as before.
# [2] = pH profile determination of FDH-catalysed formate oxidation; assay type: biochemical; conditions: pHs as low 4 or as high as 10.5
# Procedure: The pH profiles for BcenFDH1 (Bsp184FDH) and BspFDH2 (Bsp383FDH) catalyzed formate oxidation, shown in FIG. 13(a) and (b), were investigated by Uv/Vis spectrophotometry in a 96-well plate format. […] From this series, 170 μL was transferred into wells of the 96-well plate. 10 μL of the FDHs from a stock solution solution (64.1 μM for BcenFDH1 (Bsp184FDH) and 78.0 μM for BspFDH2 (Bsp383FDH)) were added into each well and equilibrated for 3 min at 30° C. The reaction was initiated by addition of 20 μL of NAD^+ solution from a freshly prepared stock (10 mM) using an 8-channel pipette. The plate was then immediately placed into the plate reader. The plate was shaken for 5 s to ensure thorough mixing, and then time-based measurements were recorded every 15 s for 10 min. The rate of formate oxidation was calculated using an extinction coefficient of 3.38 mM^−1 (for 200 μL).
# [3] = Thermal stability study (remaining activity after incubation); assay type: physicochemical
# Procedure: FIGS. 19 and 20—show the effect of temperature on the stability of the Bsp184FDH and Bsp383FDH enzymes. In FIG. […] In FIG. 20 (1) Bsp184FDH (2.1 mg/mL) and (2) Bsp383FDH (1.5 mg/mL) were incubated at 60° C. and 70° C. for 48 hours period in a similar way. Remaining activities were assayed under standard assay conditions and were expressed as the percentage of activities.
# Thermal stability for purified wild-type BcenFDH1 (Bsp184FDH) and BspFDH2 (Bsp383FDH) catalyzed formate oxidation were investigated by Uv/V is spectrophotometry in a 96-well plate format. The results are illustrated in FIGS. 19 and 20. […] In addition, time based-thermal stability for purified wild-type BcenFDH1 (Bsp184FDH) and BspFDH2 (Bsp383FDH) catalyzed formate oxidation were also investigated at 60° C. and 70° C. over 48 hours in a similar way. The samples were spun down briefly to remove any precipitations before use. 10 μL of heat-treated BcenFDH1 and BspFDH2 were added into each well and equilibrated for 3 min at 30° C. after adding 170 μL of 200 mM sodium formate (dissolving in 50 mM sodium phosphate buffer, pH 7.0.) The reaction was initiated by addition of 20 μL of NADP^+ solution from a freshly prepared stock of 20 mM using an 8-channel pipette. The plate was then immediately placed into the plate reader. The plate was shaken for 5 seconds to ensure thorough mixing. Time-based measurements were recorded every 10 s for 10 min. The rate of formate oxidation was calculated using the absorption coefficient of 3.38 mM^−1 (for 200 μL).
# [4] = Cyclohexanone monooxygenase (CHMO)/BspFDH2 coupled Baeyer-Villiger oxidation of cyclohexanone; assay type: biochemical; conditions: coupled with CHMO
# Procedure: By coupling the enzymatic action of BspFDH2 with that of cyclohexanone monooxygenase (CHMO), oxygen C—C bond insertion, a Baeyer-Viliger (B-V) oxidation (see FIG. 4b), converted (>99% conversion, complete within 4 hours) cyclohexanone (3) to caprolactone (4) with NADPH regeneration.
# NADP+ (20 mM, 1 mL) and BspFDH2 (17 mg/mL, 500 μL) were then added and the reaction shaken for 30 minutes at room temperature. After 30 minutes, pre-dialysed CHMO (2 mg/mL, 300 μL) was then added and the reaction shaken at 37° C. The reaction was monitored by GC-MS (Rt˜3.1 minutes). After 4 hr, the reaction mixture was extracted by DCM (3×1 mL) and the combined organic phase was dried and the solvent removed to afford oxepan-2-one (4 above, >99% conversion based on GC chromatogram).
# [5] = Steady state kinetics for NADP^+ (FDH-catalysed formate oxidation); assay type: biochemical
# Procedure: as §1, §2
# [6] = Steady state kinetics for formate oxidation; assay type: biochemical
# Procedure: as §1
molecule,measurement,setting,value
B1,Km,[1],7.6 ± 2.1 mM
same,kcat NAD^+,[1],0.817 ± 0.13 s⁻¹
same,activity at extreme pH,[2],highly active
same,temperature at which the enzymes denature,[3],80 °C
same,activity lost upon incubation,[3]; 55° C. for 2 hours,no activity was lost
same,stability at room temperature,[3]; room temperature for weeks,stable
same,reaction complete within,[4],≤ 4 h
same,conversion of cyclohexanone to caprolactone (oxepan-2-one),"[4]; NADPH regeneration, GC",> 99%
same,Km,"[5]; cofactor NADP^+, 0.18M formate",0.7 ± 0.1 mM
same,kcat NADP^+,"[5]; cofactor NADP^+, 0.18M formate",2.77 ± 0.12 s⁻¹
same,"cofactor preference for NADP^+, times greater than those of known FDHs such as CmetFDH",[5]; relative to CmetFDH,10^6 times
same,kcat,[6]; formate oxidation with NADP^+,6.1148 ± 0.4473 s⁻¹
same,Km,[6]; formate oxidation with NAD^+,50.1 ± 2.69 mM
same,kcat,[6]; formate oxidation with NAD^+,0.772 ± 0.0158 s⁻¹
